# T1: CRF2-4/zcytor11 heterodimeric receptor on BaF3 cells (BaF3/CRF2-4/zcytor11 cells) (human, UniProt Q08334 20-325; Q8N6P7 16-574)
# T1 sequence (looked up) 1: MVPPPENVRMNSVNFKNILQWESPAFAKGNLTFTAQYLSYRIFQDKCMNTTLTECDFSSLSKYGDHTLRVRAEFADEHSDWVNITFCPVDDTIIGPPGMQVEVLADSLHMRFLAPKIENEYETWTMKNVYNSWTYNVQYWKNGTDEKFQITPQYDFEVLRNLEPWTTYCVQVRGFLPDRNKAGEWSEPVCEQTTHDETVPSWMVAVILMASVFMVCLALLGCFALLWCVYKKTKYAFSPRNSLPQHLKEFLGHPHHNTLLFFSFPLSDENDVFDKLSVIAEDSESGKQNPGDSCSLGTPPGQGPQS
# T1 sequence (looked up) 2: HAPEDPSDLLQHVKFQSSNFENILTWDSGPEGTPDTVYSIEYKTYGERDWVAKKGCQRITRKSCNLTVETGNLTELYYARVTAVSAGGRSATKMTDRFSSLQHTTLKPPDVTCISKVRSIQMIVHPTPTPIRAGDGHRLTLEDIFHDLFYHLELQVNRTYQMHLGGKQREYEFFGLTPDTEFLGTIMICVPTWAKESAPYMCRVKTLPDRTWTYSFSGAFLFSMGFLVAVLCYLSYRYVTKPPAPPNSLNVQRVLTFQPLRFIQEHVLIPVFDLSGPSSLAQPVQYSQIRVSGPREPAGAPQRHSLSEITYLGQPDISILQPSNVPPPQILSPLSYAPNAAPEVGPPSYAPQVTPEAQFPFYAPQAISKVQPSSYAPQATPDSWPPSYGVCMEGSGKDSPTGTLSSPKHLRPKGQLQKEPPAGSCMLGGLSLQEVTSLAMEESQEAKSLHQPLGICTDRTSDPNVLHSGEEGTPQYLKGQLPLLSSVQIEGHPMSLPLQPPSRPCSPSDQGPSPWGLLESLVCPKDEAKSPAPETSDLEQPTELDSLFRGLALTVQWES
# Tests used:
# [1] = biological target: human IL-TIF (T-cell inducible Factor) (human) (UniProt Q9GZX6); experiment: cell-based or functional assay
# [2] = biological target: T1, CRF2-4/zcytor11 heterodimeric receptor …; experiment: cell-based or functional assay
molecule,measurement,setting,value
secreted hzcytor11/hCRF2-4 heterodimer (CRF2-4/zcytor11-Fc4) (Fc fusion),concentration of CRF2-4/zcytor11-Fc4 at which inhibition of proliferation induced by 100 pg/ml IL-TIF was barely detectable,[1],63 ng/mL
same,concentration of CRF2-4/zcytor11-Fc4 giving complete inhibition of proliferation induced by 100 pg/ml IL-TIF,[1],8 µg/mL
IL-TIF-CEE (IL-TIF polypeptide with C-terminal Glu-Glu tag) (ligand) APISSHCRLDKSNFQQPYITNRTFMLAKEASLADNNTDVRLIGEKLFHGVSMSERCYLMKQVLNFTLEEVLFPQSDRFQPYMQEVVPFLARLSNRLSTCHIEGDDLHIQRNVQKLKDTVKKLGESGEIKAIGELDLLFMSLRNACIEYMPME,"proliferation of BaF3/CRF2-4/zcytor11 cells (Alamar Blue), fold induction at 0.06 ng/ml IL-TIF-CEE",[2],2 fold induction
same,"proliferation of BaF3/CRF2-4/zcytor11 cells (Alamar Blue), fold over background at 50 ng/ml IL-TIF-CEE",[2],~15 fold over background
human IL-TIF (T-cell inducible Factor) (ligand) APISSHCRLDKSNFQQPYITNRTFMLAKEASLADNNTDVRLIGEKLFHGVSMSERCYLMKQVLNFTLEEVLFPQSDRFQPYMQEVVPFLARLSNRLSTCHIEGDDLHIQRNVQKLKDTVKKLGESGEIKAIGELDLLFMSLRNACI,"proliferation of BaF3/CRF2-4/zcytor11 cells (Alamar Blue), fold over background with 100 pg/ml IL-TIF alone",[2],13 fold over background

# Source: patent publication US20030099608A1 (ZymoGenetics, published 2003)
